Patent US20070042959A1, “Thrombin-inhibiting peptides” (priority 1997, published 2007)

Columns and labels:
[1] = clinical studies; easily overdosed; cited from earlier work
[2] = test system: blood clotting (human citrate plasma); test: activated partial thromboplastin time (APTT), action on blood clotting; format: biochemical; settings: at low concentrations; pre-clinical data, see sample application 1
Protocol: The action of triabin and hirudin on blood clotting was measured by determining the activated partial thromboplastin time (APTT). 100 μl of human citrate plasma, 10 μl of inhibitor (triabin or hirudin) and 100 μl of APTT reagent (pathromtin from the Behring Company) were incubated for 3 minutes at 37° C. After 100 μl of a 25 mmol CaCl2 solution was added, the time until clots formed was measured. The measuring was carried out in a fibrometer of the Sarstedt Company. The results are indicated in an extension of the clotting time, which was measured without adding inhibitor.

Q: With hirudin as the substance, how does the bleeding on overdosing [1] read?
A: severe bleeding complications

Q: And the inhibition of clotting [2]?
A: inhibits at low concentrations
